Experimental data: patent US20160297884A1 (Pfizer, published 2016)

T1: Human BCMA (human, UniProt Q02223 1-54, limits assumed)
T1 construct: Soluble analyte in SPR; construct not described; also called huBCMA; B-cell maturation antigen
T1 sequence (looked up): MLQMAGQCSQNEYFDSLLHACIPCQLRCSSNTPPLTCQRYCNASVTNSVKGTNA


Experiments:
Human BCMA = biological target: T1, Human BCMA; experiment: SPR, IgG immobilised, 37 C
Outline: (§1)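 Rate constants come from a 1:1 Langmuir model including mass transport, fitted to double-referenced sensorgrams. Analyte was human or cynomolgus BCMA in five rising concentrations up to 50 nM over amine-coupled IgG; runs were at 25° C or 37° C.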

cynomolgus monkey BCMA = biological target: T2, cynomolgus monkey BCMA (cynomolgus monkey, UniProt A0A2K5UD97 1-53); experiment: SPR, IgG immobilised, 37 C
T2 construct: Soluble analyte in SPR; construct not described; also called cyBCMA; Cyno BCMA
T2 sequence (A0A2K5UD97 entry or part of it): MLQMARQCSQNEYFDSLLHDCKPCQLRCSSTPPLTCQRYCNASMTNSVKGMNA
Outline: as §1

| Binder | Kd (Human BCMA) [nM] | T ½ (Human BCMA) [min] | koff (Human BCMA) [s⁻¹] | kon (Human BCMA) [M⁻¹ s⁻¹] | Kd (cynomolgus monkey BCMA) [nM] | T ½ (cynomolgus monkey BCMA) [min] | koff (cynomolgus monkey BCMA) [s⁻¹] | kon (cynomolgus monkey BCMA) [M⁻¹ s⁻¹] |
| --- | --- | --- | --- | --- | --- | --- | --- | --- |
| L3.PY/H2.QR (antibody, V domains shown, IgG) VH: EVQLLESGGGLVQPGGSLRLSCAASGFTFGSYAMTWVRQAPGKGLEWVSAISGSGGNTFYADQRKGRFTISRDNSKNTLYLQMNSLRAEDTAVYYCARVSPIASGMDYWGQGTLVTVSS VL: EIVLTQSPGTLSLSPGERATLSCRASQSVSSSYLAWYQQKPGQAPRLLIYGASSRATGIPDRFSGSGSGTDFTLTISRLEPEDFAVYYCQHYPYPPSFTFGQGTKVEIK | 0.46 | 9.75 | 0.00119 | 2.56e+06 | 3.02 | 1.76 | 0.00658 | 2.18e+06 |
| L3.PY/H2.YQ (antibody, V domains shown, IgG) VH: EVQLLESGGGLVQPGGSLRLSCAASGFTFGSYAMTWVRQAPGKGLEWVSAISYQGGNTFYADSVKGRFTISRDNSKNTLYLQMNSLRAEDTAVYYCARVSPIASGMDYWGQGTLVTVSS VL: EIVLTQSPGTLSLSPGERATLSCRASQSVSSSYLAWYQQKPGQAPRLLIYGASSRATGIPDRFSGSGSGTDFTLTISRLEPEDFAVYYCQHYPYPPSFTFGQGTKVEIK | 0.6 | 7.41 | 0.00156 | 2.58e+06 | 2.53 | 1.86 | 0.00621 | 2.46e+06 |
| L3.PY/H3.TAQ (antibody, V domains shown, IgG) VH: EVQLLESGGGLVQPGGSLRLSCAASGFTFGSYAMTWVRQAPGKGLEWVSAISGSGGNTFYADSVKGRFTISRDNSKNTLYLQMNSLRAEDTAVYYCTRVSPIAAQMDYWGQGTLVTVSS VL: EIVLTQSPGTLSLSPGERATLSCRASQSVSSSYLAWYQQKPGQAPRLLIYGASSRATGIPDRFSGSGSGTDFTLTISRLEPEDFAVYYCQHYPYPPSFTFGQGTKVEIK | 0.37 | 10.1 | 0.00114 | 3.08e+06 | 1.7 | 2.64 | 0.00437 | 2.57e+06 |
| L3.PY/L1.AH/H2.DY (antibody, V domains shown, IgG) VH: EVQLLESGGGLVQPGGSLRLSCAASGFTFGSYAMTWVRQAPGKGLEWVSAIDYSGGNTFYADSVKGRFTISRDNSKNTLYLQMNSLRAEDTAVYYCARVSPIASGMDYWGQGTLVTVSS VL: EIVLTQSPGTLSLSPGERATLSCRASQSVSAHYLAWYQQKPGQAPRLLIYGASSRATGIPDRFSGSGSGTDFTLTISRLEPEDFAVYYCQHYPYPPSFTFGQGTKVEIK | 0.5 | 7.62 | 0.00152 | 3.05e+06 | 1.95 | 2.56 | 0.00451 | 2.32e+06 |
| L3.PY/H3.AQ (antibody, V domains shown, IgG) VH: EVQLLESGGGLVQPGGSLRLSCAASGFTFGSYAMTWVRQAPGKGLEWVSAISGSGGNTFYADSVKGRFTISRDNSKNTLYLQMNSLRAEDTAVYYCARVSPIAAQMDYWGQGTLVTVSS VL: EIVLTQSPGTLSLSPGERATLSCRASQSVSSSYLAWYQQKPGQAPRLLIYGASSRATGIPDRFSGSGSGTDFTLTISRLEPEDFAVYYCQHYPYPPSFTFGQGTKVEIK | 0.56 | 6.69 | 0.00173 | 3.08e+06 | 1.94 | 2.14 | 0.00539 | 2.77e+06 |
| L3.PY/L1.AH/H2.HA (antibody, V domains shown, IgG) VH: EVQLLESGGGLVQPGGSLRLSCAASGFTFGSYAMTWVRQAPGKGLEWVSAISHAGGNTFYADSVKGRFTISRDNSKNTLYLQMNSLRAEDTAVYYCARVSPIASGMDYWGQGTLVTVSS VL: EIVLTQSPGTLSLSPGERATLSCRASQSVSAHYLAWYQQKPGQAPRLLIYGASSRATGIPDRFSGSGSGTDFTLTISRLEPEDFAVYYCQHYPYPPSFTFGQGTKVEIK | 0.54 | 6.37 | 0.00181 | 3.33e+06 | 1.7 | 2.63 | 0.00439 | 2.58e+06 |
| L3.PY/L1.AH/H2.QR (antibody, V domains shown, IgG) VH: EVQLLESGGGLVQPGGSLRLSCAASGFTFGSYAMTWVRQAPGKGLEWVSAISGSGGNTFYADQRKGRFTISRDNSKNTLYLQMNSLRAEDTAVYYCARVSPIASGMDYWGQGTLVTVSS VL: EIVLTQSPGTLSLSPGERATLSCRASQSVSAHYLAWYQQKPGQAPRLLIYGASSRATGIPDRFSGSGSGTDFTLTISRLEPEDFAVYYCQHYPYPPSFTFGQGTKVEIK | 0.58 | 6.39 | 0.00181 | 3.13e+06 | 2.23 | 2.35 | 0.00491 | 2.2e+06 |
| L3.PY/H3.YA (antibody, V domains shown, IgG) VH: EVQLLESGGGLVQPGGSLRLSCAASGFTFGSYAMTWVRQAPGKGLEWVSAISGSGGNTFYADSVKGRFTISRDNSKNTLYLQMNSLRAEDTAVYYCARVSPIYAGMDYWGQGTLVTVSS VL: EIVLTQSPGTLSLSPGERATLSCRASQSVSSSYLAWYQQKPGQAPRLLIYGASSRATGIPDRFSGSGSGTDFTLTISRLEPEDFAVYYCQHYPYPPSFTFGQGTKVEIK | 0.37 | 9.82 | 0.00118 | 3.15e+06 | 1.88 | 2.14 | 0.0054 | 2.87e+06 |
| L3.PY/L1.AH/H2.QL (antibody, V domains shown, IgG) VH: EVQLLESGGGLVQPGGSLRLSCAASGFTFGSYAMTWVRQAPGKGLEWVSAISGSGGNTFYADQLKGRFTISRDNSKNTLYLQMNSLRAEDTAVYYCARVSPIASGMDYWGQGTLVTVSS VL: EIVLTQSPGTLSLSPGERATLSCRASQSVSAHYLAWYQQKPGQAPRLLIYGASSRATGIPDRFSGSGSGTDFTLTISRLEPEDFAVYYCQHYPYPPSFTFGQGTKVEIK | 0.53 | 7.22 | 0.0016 | 3.04e+06 | 3.65 | 1.21 | 0.00955 | 2.62e+06 |
| L3.PY/H3.AE (antibody, V domains shown, IgG) VH: EVQLLESGGGLVQPGGSLRLSCAASGFTFGSYAMTWVRQAPGKGLEWVSAISGSGGNTFYADSVKGRFTISRDNSKNTLYLQMNSLRAEDTAVYYCARVSPIAAEMDYWGQGTLVTVSS VL: EIVLTQSPGTLSLSPGERATLSCRASQSVSSSYLAWYQQKPGQAPRLLIYGASSRATGIPDRFSGSGSGTDFTLTISRLEPEDFAVYYCQHYPYPPSFTFGQGTKVEIK | 0.42 | 8.32 | 0.00139 | 3.29e+06 | 1.79 | 2.29 | 0.00504 | 2.82e+06 |
| L3.PY/L1.AH/H2.LT (antibody, V domains shown, IgG) VH: EVQLLESGGGLVQPGGSLRLSCAASGFTFGSYAMTWVRQAPGKGLEWVSAISLTGGNTFYADSVKGRFTISRDNSKNTLYLQMNSLRAEDTAVYYCARVSPIASGMDYWGQGTLVTVSS VL: EIVLTQSPGTLSLSPGERATLSCRASQSVSAHYLAWYQQKPGQAPRLLIYGASSRATGIPDRFSGSGSGTDFTLTISRLEPEDFAVYYCQHYPYPPSFTFGQGTKVEIK | 0.39 | 9.38 | 0.00123 | 3.16e+06 | 1.35 | 3.91 | 0.00296 | 2.19e+06 |
